Data reported in patent publication US20190248900A1 (Y BIOLOGICS, published 2019).
Numbering of substitutions follows the chain as printed.

B1: PD1-41C9 (antibody, V domains shown)
VH: QMQLVESGGGVVQPGRSLRLSCAASGFTFSSYAMHWVRQAPGKGLEWVAVISYDGSNKYYADSVKGRFTISRDNSKNTLYLQMNRLRSEDTAVYYCTTTTFDSWGQGTLITVSS
VL: DIVMTQTPLSLPVTPGEAASISCRSSQSLLDSEDGNTYLDWYLQKPGQSPQLLIYTLSHRASGVPDRFSGSGSGTDFTLKISRVAAEDVGLYYCLQRMGFPYTFGQGTKLDIK
notes: scFv-phage in the screening ELISA; whole IgG in the other assays
B2: PD1-49A2 (antibody, V domains shown)
VH: B1 VH with M2V, S75P, R85S, S88A, Q106R, I110V
VL: B1 VL with T7S, A18P, L30F, E33D, A85E, L91I, L110V, D111E
notes: scFv-phage in the screening ELISA; whole IgG in the other assays; also called Parent 49A2
B3: PD1-45D6 (antibody, V domains shown)
VH: QVQLVESGGGVVQPGRSLRLSCAASGFTFSSYAMHWVRQVPGKGLEWVAVISYDGNDKYYADSVKGRFTISRDNSKNTLYLQMNSLRAEDTAVYYCVPTTFEYWGQGSQVTVSS
VL: DIVMTQTPLSLPVTPGEAASISCRSSQSLLDSDDGKTYLDWYLQKPGQSPQLLIYTLSYRASGVPDRFSGSGSGTEFNLRISRVEAEDVGIYYCMQRVEFPFTFGQGTKLDIK
notes: as for B1

The binders below were run against T1, EPYC (Homo sapiens (Human), UniProt Q99645 20-322) (assay: ELISA).
T1 sequence: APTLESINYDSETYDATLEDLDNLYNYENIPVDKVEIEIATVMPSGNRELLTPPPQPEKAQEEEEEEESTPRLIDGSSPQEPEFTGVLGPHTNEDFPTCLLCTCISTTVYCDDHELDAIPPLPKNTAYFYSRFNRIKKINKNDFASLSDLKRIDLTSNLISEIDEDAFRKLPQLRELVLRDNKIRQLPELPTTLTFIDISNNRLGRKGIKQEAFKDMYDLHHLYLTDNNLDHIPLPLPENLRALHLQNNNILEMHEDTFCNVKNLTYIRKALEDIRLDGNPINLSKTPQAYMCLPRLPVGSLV
B1: no binding (tested: 1 ug/ml). B2: no binding (tested: 1 ug/ml). B3: no binding (tested: 1 ug/ml).

Each binder was assayed against T2, RAET1E (Homo sapiens (Human), UniProt Q8TD07 31-225) (assay: ELISA).
T2 sequence: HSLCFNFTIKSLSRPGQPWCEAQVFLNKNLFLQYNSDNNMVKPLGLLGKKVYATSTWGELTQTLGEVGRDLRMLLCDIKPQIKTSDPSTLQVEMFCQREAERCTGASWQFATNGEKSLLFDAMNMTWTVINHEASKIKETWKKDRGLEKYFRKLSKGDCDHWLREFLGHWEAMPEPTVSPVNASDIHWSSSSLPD
B1: no binding (tested: 1 ug/ml). B2: no binding (tested: 1 ug/ml). B3: no binding (tested: 1 ug/ml).

What follows are binders tested against T3, LRRN4 (Homo sapiens (Human), UniProt Q8WUT4 19-679) (assay: ELISA).
T3 sequence: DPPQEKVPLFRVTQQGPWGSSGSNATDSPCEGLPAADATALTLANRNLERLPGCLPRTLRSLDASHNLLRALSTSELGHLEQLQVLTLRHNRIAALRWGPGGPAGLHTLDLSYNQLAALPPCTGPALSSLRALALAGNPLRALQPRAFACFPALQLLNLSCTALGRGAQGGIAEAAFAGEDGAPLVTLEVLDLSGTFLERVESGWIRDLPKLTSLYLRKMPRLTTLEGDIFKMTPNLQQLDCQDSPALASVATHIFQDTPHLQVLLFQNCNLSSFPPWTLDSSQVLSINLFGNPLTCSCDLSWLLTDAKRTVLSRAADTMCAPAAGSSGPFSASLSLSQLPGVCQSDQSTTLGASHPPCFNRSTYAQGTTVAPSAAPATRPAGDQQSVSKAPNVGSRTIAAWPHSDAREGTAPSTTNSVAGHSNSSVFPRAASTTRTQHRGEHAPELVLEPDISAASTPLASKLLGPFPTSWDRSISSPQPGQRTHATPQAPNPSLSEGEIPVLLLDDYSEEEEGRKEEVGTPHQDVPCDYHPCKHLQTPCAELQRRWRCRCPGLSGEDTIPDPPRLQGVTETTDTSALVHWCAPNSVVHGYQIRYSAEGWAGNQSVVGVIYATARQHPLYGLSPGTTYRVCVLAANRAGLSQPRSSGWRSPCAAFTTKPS
B1: no binding (tested: 1 ug/ml). B2: no binding (tested: 1 ug/ml). B3: no binding (tested: 1 ug/ml).

Each binder was assayed against T4, OSTM1 (Homo sapiens (Human), UniProt Q86WC4 32-284) (assay: ELISA).
T4 sequence: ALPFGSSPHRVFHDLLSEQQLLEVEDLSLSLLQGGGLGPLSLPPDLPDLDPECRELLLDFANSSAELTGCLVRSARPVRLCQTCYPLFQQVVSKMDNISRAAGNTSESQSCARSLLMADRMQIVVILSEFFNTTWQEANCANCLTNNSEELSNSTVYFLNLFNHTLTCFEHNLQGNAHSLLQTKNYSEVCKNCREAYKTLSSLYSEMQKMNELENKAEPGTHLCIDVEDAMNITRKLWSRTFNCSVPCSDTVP
B1: no binding (tested: 1 ug/ml). B2: no binding (tested: 1 ug/ml). B3: no binding (tested: 1 ug/ml).

What follows are binders tested against T5, WIF1 (Homo sapiens (Human), UniProt Q9Y5W5 29-379) (assay: ELISA).
T5 sequence: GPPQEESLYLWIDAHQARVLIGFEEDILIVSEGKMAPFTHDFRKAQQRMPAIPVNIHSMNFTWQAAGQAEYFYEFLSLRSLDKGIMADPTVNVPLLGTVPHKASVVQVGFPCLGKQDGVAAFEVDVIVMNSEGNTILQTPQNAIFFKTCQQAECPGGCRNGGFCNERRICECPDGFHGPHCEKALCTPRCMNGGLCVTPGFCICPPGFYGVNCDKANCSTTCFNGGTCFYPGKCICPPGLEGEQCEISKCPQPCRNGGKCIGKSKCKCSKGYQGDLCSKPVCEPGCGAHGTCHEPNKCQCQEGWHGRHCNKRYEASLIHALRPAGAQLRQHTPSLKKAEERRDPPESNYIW
B1: no binding (tested: 1 ug/ml). B2: no binding (tested: 1 ug/ml). B3: no binding (tested: 1 ug/ml).

The binders below were run against DKK3 (Homo sapiens (Human), UniProt Q9UBP4 22-350) (assay: ELISA).
Chain of DKK3 (Q9UBP4 22-350 limits assumed): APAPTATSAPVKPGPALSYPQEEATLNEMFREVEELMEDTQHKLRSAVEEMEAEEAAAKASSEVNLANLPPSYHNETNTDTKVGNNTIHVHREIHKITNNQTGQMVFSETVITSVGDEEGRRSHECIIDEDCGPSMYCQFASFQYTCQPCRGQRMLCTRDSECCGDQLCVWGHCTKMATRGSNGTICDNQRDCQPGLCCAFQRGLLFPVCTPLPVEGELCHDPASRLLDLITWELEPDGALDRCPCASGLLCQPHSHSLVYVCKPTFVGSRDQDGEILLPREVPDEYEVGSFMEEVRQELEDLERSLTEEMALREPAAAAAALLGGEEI
B1: no binding (tested: 1 ug/ml). B2: no binding (tested: 1 ug/ml). B3: no binding (tested: 1 ug/ml).

The binders below were run against T6, DNER (Homo sapiens (Human), UniProt Q8NFT8 35-640) (assay: ELISA).
T6 sequence: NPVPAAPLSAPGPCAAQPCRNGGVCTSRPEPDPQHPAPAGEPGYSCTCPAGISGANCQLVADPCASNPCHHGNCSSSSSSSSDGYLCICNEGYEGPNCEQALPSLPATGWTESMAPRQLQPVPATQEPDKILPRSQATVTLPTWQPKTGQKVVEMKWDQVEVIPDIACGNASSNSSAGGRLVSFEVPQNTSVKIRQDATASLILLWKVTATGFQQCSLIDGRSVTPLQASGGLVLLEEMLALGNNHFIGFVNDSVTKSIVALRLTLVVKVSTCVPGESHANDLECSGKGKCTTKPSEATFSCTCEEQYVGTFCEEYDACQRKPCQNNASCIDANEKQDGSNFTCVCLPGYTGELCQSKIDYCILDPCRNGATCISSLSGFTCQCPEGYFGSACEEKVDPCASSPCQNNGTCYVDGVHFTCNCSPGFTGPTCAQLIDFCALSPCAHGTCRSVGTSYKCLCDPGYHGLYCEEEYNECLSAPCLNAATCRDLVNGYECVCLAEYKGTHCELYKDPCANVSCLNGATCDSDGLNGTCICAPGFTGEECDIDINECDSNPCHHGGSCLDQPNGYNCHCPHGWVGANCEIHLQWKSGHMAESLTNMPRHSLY
B1: no binding (tested: 1 ug/ml). B2: no binding (tested: 1 ug/ml). B3: no binding (tested: 1 ug/ml).

What follows are binders tested against T7, FSTL1 (Homo sapiens (Human), UniProt Q12841 21-308) (assay: ELISA).
T7 sequence: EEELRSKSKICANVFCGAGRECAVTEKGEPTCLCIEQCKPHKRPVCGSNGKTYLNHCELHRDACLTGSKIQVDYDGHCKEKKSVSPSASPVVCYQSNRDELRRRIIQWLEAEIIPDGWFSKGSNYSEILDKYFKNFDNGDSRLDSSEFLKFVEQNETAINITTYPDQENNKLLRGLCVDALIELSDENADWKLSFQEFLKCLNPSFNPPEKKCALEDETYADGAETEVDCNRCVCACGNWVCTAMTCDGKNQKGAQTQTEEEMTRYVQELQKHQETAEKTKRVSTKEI
B1: no binding (tested: 1 ug/ml). B2: no binding (tested: 1 ug/ml). B3: no binding (tested: 1 ug/ml).
